According to article PMC3167601:
Changes are numbered by the printed parent chain.

Tests used:
Test in all cases: fluorescence anisotropy
[1] = molecular target: T1, IRF-3 DBD H40A (human, UniProt Q14653 1-113, H40A)
T1 sequence: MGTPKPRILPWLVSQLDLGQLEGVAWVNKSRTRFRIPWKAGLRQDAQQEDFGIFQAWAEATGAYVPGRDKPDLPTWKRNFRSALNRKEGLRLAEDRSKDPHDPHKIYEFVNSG

[2] = molecular target: T2, IRF-7 DBD wild type (mouse, UniProt P70434 1-134)
T2 sequence: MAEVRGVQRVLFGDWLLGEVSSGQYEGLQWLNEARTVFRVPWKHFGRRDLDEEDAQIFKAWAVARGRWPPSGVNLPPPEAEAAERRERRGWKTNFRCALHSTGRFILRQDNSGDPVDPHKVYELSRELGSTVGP

[3] = molecular target: T3, IRF-3 DBD wild type (human, UniProt Q14653 1-113)
T3 sequence: T1 sequence with A40H

[4] = molecular target: T4, IRF-7 DBD H44A (mouse, UniProt P70434 1-134, H44A)
T4 sequence: T2 sequence with H44A

B1: PRDI 15-mer duplex (dsDNA)
DNA 1: GAGAAGTGAAAGTGG
DNA 2: CCACTTTCACTTCTC
[1]
  Kd: 1710 nM
[2]
  Kd: 630 nM
[3]
  Kd: 486 nM
[4]
  Kd: 532 nM
